This is an account of results in PMC9010429, “Validation of a small molecule inhibitor of PDE6D-RAS interaction with favorable anti-leukemic effects” (Blood Cancer Journal, 2022).

This assay deals with Recombinant human Rac1 (Q2-L177) (human, UniProt P63000 2-177). As to the kind of experiment: AlphaScreen or HTRF; 30 nM His-Rac1 pre-incubated with compound 30 min at room temperature, then 300 nM FLAG-Tiam1, 2 nM anti-His-Eu3+, 20 nM anti-FLAG-XL665; 50 mM Hepes pH 7.6, 100 mM NaCl, 1 mM DTT, 10 mM MgCl2, 0.1% Nonidet P-40; titration of NSC23766, DW0069 or DW0254. The settings on record: both partners purified. A general note: Bead proximity is the source of the signal in Alpha formats.

B1: Truncated recombinant human Tiam1 (R1033-E1406) (domain or fragment)
chain: RQLSDADKLRKVICELLETERTYVKDLNCLMERYLKPLQKETFLTQDELDVLFGNLTEMVEFQVEFLKTLEDGVRLVPDLEKLEKVDQFKKVLFSLGGSFLYYADRFKLYSAFCASHTKVPKVLVKAKTDTAFKAFLDAQNPKQQHSSTLESYLIKPIQRILKYPLLLRELFALTDAESEEHYHLDVAIKTMNKVASHINEMQKIHEEFGAVFDQLIAEQTGEKKEVADLSMGDLLLHTTVIWLNPPASLGKWKKEPELAAFVFKTAVVLVYKDGSKQKKKLVGSHRLSIYEDWDPFRFRHMIPTEALQVRALASADAEANAVCEIVHVKSESEGRPERVFHLCCSSPESRKDFLKAVHSILRDKHRRQLLKTE
notes: human Tiam1, residues R1033-E1406, pTriIJ-HV vector; also called FLAG-tagged Tiam1; not shown: FLAG, N-terminal, kept
As for B1, the binding result was “binds”.
